Measurements: patent publication US20110178027A1 (published 2011)
Read-outs that look alike come from different tables or passages of the source. No end group written: not given here.

T1: PC7 (UniProt Q16549 142-667)
T1 chain: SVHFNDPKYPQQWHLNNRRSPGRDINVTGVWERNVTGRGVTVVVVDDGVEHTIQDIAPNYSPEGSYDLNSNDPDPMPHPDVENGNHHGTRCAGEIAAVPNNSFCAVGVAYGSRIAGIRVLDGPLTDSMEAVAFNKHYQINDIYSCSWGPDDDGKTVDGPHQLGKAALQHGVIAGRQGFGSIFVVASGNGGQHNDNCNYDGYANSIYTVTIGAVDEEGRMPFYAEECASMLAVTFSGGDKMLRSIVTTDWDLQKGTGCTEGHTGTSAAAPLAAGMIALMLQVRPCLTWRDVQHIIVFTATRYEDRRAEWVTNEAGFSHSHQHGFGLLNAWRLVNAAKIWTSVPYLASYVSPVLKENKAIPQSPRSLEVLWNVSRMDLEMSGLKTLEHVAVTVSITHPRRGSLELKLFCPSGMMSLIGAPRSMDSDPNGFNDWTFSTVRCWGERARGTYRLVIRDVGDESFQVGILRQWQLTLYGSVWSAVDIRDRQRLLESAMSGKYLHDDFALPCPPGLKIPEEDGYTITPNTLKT

T2: PC1/3 (UniProt P29120 111-753)
T2 chain: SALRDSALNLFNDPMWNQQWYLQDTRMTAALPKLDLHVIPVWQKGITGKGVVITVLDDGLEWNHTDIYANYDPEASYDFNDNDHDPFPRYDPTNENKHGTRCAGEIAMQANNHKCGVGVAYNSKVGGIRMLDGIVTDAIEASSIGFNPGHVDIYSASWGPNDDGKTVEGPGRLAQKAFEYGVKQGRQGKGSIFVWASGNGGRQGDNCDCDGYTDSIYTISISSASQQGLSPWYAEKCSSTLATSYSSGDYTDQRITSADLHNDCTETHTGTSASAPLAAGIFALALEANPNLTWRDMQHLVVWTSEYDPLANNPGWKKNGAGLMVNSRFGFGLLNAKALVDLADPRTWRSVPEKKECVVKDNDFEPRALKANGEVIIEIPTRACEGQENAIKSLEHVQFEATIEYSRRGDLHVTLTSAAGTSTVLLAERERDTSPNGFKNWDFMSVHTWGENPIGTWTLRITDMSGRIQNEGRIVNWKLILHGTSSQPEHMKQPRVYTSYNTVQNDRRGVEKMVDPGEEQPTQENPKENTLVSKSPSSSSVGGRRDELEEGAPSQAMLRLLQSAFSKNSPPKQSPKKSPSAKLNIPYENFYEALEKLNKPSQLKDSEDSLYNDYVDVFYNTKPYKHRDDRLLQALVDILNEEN

T3: PC2 (UniProt P16519 110-638)
T3 chain: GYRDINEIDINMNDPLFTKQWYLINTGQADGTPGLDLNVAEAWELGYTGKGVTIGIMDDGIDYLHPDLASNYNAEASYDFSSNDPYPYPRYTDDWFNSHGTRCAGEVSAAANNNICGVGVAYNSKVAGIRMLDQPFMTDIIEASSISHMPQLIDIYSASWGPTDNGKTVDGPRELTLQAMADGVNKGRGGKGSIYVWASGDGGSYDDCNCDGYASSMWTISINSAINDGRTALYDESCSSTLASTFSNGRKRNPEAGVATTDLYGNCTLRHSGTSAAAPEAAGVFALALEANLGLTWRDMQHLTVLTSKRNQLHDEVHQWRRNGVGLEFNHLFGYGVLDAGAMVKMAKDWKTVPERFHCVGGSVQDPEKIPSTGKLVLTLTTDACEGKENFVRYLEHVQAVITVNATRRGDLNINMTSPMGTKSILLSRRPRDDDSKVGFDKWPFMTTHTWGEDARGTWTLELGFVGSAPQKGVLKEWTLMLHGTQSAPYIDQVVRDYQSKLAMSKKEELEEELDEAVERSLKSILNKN

T4: PC5/6 (UniProt Q92824 115-913)
T4 chain: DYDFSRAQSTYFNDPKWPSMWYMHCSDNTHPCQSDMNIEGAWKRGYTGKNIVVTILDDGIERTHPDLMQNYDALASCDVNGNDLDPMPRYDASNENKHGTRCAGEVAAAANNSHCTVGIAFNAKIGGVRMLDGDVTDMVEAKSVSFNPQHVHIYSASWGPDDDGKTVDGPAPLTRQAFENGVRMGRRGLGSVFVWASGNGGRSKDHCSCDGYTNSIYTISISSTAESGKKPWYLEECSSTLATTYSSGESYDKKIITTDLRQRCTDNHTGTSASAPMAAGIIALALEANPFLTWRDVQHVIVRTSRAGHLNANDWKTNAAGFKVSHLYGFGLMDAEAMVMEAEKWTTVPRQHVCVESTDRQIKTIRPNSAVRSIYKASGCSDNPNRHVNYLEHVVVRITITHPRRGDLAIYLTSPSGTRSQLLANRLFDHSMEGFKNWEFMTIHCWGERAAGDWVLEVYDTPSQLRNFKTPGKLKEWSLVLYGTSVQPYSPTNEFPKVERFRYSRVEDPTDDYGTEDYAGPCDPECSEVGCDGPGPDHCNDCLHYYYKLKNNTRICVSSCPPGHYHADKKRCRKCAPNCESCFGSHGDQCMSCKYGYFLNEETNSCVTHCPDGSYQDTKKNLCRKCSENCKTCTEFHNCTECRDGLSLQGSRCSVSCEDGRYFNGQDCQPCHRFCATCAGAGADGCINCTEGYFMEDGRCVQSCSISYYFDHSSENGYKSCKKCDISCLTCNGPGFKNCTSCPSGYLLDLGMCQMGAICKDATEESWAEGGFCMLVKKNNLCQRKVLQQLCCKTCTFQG

T5: PACE4 (UniProt P29122 150-969)
T5 chain: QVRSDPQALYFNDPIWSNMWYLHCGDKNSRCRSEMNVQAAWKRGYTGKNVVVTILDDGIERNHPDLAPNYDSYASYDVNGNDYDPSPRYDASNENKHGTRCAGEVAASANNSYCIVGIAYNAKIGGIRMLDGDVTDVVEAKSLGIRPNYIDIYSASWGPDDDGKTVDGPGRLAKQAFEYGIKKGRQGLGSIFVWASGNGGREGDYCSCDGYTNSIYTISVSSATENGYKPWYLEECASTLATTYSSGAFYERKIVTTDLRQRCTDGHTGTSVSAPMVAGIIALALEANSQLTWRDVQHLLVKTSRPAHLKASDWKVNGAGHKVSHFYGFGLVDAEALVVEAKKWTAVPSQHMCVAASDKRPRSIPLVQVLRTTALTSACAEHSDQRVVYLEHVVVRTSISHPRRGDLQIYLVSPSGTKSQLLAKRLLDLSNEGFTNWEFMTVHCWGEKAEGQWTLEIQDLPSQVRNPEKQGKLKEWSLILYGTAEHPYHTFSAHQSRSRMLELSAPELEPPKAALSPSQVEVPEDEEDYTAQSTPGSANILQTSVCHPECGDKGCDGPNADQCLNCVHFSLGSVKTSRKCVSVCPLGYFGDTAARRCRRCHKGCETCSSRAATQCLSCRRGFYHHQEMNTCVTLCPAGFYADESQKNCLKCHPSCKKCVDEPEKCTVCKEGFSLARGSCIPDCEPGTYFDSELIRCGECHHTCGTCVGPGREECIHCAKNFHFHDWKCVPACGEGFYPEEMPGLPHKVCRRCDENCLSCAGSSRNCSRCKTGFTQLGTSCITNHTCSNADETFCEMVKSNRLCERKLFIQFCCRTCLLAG


Tests used:
PC7 = biological target: T1, PC7; assay: enzyme inhibition
PC1/3 = biological target: T2, PC1/3; assay: enzyme inhibition
furin [1] = biological target: T6, furin (UniProt P09958 108-715); assay: enzyme inhibition
T6 sequence (P09958 108-715): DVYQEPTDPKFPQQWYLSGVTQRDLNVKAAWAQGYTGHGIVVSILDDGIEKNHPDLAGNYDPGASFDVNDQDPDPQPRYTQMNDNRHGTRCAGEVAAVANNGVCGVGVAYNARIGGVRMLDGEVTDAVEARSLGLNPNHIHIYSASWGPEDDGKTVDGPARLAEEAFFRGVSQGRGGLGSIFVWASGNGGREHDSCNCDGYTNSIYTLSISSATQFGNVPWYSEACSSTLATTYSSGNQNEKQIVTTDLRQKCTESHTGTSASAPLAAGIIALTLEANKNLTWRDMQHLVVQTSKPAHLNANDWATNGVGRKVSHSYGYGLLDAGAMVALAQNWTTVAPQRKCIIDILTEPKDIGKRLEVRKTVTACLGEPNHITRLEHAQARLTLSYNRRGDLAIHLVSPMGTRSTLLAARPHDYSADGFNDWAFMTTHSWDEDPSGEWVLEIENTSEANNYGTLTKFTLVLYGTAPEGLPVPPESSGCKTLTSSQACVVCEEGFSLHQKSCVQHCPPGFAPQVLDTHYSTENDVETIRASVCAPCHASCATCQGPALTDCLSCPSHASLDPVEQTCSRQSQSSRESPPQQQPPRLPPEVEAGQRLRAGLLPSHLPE

PC2 = biological target: T3, PC2; assay: enzyme inhibition
PC5/6 = biological target: T4, PC5/6; assay: enzyme inhibition
furin [2] = biological target: T6, furin
PACE4 = biological target: T5, PACE4; assay: enzyme inhibition

| Binder | Ki (PC7) | Ki (PC1/3) | Ki (furin [1]) | Ki (PC2) | Ki (PC5/6) | Ki (furin [2]) | Ki (PACE4) |
| --- | --- | --- | --- | --- | --- | --- | --- |
| LLLLLRVKR-NH2 [LLLLLRVKR-NH2] | 40 nM | 370 nM | 1500 nM | 4830 nM |  |  |  |
| LLLRVKR-NH2 [LLLRVKR-NH2] | 50 nM | 240 nM | 980 nM | 12900 nM | 340 nM |  |  |
| LLRVKR-NH2 [LLRVKR-NH2] | 100 nM | 170 nM |  | 3270 nM | 130 nM | 540 nM |  |
| LLLLLLRVKR-NH2 [LLLLLLRVKR-NH2] | 30 nM | 1160 nM | 1390 nM | 4550 nM |  |  |  |
| LLLLRVKR-NH2 [LLLLRVKR-NH2] |  |  |  |  |  | 1140 nM |  |

Now from value to binder:

| Ki (PC7) | Ki (PC1/3) | Ki (furin [1]) | Ki (PC2) | Ki (PC5/6) | Ki (furin [2]) | Ki (PACE4) | Binder |
| --- | --- | --- | --- | --- | --- | --- | --- |
| 2490 nM | 580 nM | 550 nM |  | 360 nM |  |  | LRVKR-NH2 [LRVKR-NH2] |
| 10400 nM | 1450 nM | 8110 nM |  | 5570 nM |  | 4340 nM | RVKR-NH2 [RVKR-NH2] |
